According to the DeepSol protein solubility set:

Assay: soluble on expression in E. coli; label from the status in PepcDB or PDB records

Sequence	soluble on expression in E. coli
MRCPFCGAEDTSVVDSRISEEGARIRRRRRCVECEKRFTTYETVELRFPQVIKQDGNRVEFNREKLYTSFARALHKRPVPTGQVDAAIERILQKLLGSGVQEISSRTIGEWVMQELYSLDKVAYIRFASVYRSFEDVGDFQEVIREVQSSPQNGDGPSS	not soluble
MLIYEGHIDKLIRRGQEKGLDIYNLIRTAVFNPVEHYGLNVGLLREGDPADFIIVDNLKSFNILSTFIDGECVYENGKVLFPLEHHHHHH	not soluble
MMLSTEGREGFVVKVRGLPWSCSADEVMRFFSDCKIQNGTSGIRFIYTREGRPSGEAFVELESEEEVKLALKKDRETMGHRYVEVFKSNSVEMDWVLKHTGPNSPDTANDGFVRLRGLPFGCSKEEIVQFFSGLEIVPNGMTLPVDFQGRSTGEAFVQFASQEIAEKALKKHKERIGHRYIEIFKSSRAEVRTHYDPPRKLMAMQRPGPYDRPGAGRGYNSIGRGAGFERMRRGAYGGGYGGYDDYGGYNDGYGFGSDRFGRDLNYCFSGMSDHRYGDGGSSFQSTTGHCVHMRGLPYRATENDIYNFFSPLNPMRVHIEIGPDGRVTGEADVEFATHEDAVAAMAKDKANMQHRYVELFLNSTAGTSGGAYDHSYVELFLNSTAGASGGAYGSQMMGGMGLSNQSSYGGPASQQLSGGYGGGYGGQSSMSGYDQVLQENSSDYQSNLA	soluble
MISPQEQQKQEIATTPSGTKENEKLVVPGVQVALENISTKSVLNAVNYKYAQLFHREQVSSAQSNTTSKQYIEERKTSNGTIGEVLRKFEKGRLLGKGGFAKVYQLTDIHTHQKYAGKIIPKNAIRKESAKQKLISEIRIHRELRHRHIVKFESCFEDQENVYIVLELCPNGSIMDMVRQRGRLTEYETRYFMIQILDAIRYMHRECLVIHRDLKLGNFFLDENMEVKIGDFGLAAQLSSDKERKRTICGTPNYIAPEILSGKQGHSFEVDIWSTGVVFYTMLVGKPPFETSDVKSTYKRIKENIYSIPESLDLSTSAIELIGSILNSDPAKRLSLDEIRSHPFFDAKIPRALSIHALKSTPVFEESELIERNKESSSYKKGRENRQQTVVGSSGLWNDVIQSISQDQRTPLQKLQQHIKSNAAKNNDHAEKLHQALEKHLQLNDNQSKKEEKLLESQEAHSKSTKGIFDKGLDTQSEDEERMVLNKVRDQLTSSFALLKNAEQSPYAFTSSLNTNDGTTSGSPSFQSPVNALTGGAWICKWLDYSKKYGLGYQTCLGSTGVCFNDGTQIILEKGQQNWIYYMKRTESHEERNENKWIKMTMEDYPSELQKKVKLLIHFRNYMLDHTPKGQEDPLISPESSFQNIDTSNETCGAKDATRPVYIKTWFRSPYAIIFRLSNRNIQVDFNDGTEVILSPEVHVVTYRGKDGRRNSYQQGHLPSLPELLKRLRYVMDLLQEMLNRKTS	soluble
MSQTITVKVKLLPTKEQIQLLEQSSYEYIKVINTLVSEMAEAKKSTKKSTKDVEANLPSAVKNQAIKDAKSVFSTKVKKSKYKVIPILKRPVCVWNNQNYSFDFTHISVPLMVNGKSTRLKVRALLTDKYNRNFNLLTHKLGTLRITKKSNKWIAQISVTIPTNEKTGTKILGVDLGLKVPAVAITDDEKVRFFGNGRQNKYMKRKFRSVRKKLGENKKLNAIRQLDDKEQRWMQDQDHKVSREIIDFATDNNISVIRLEQLTNIRQTARTSRKNEKNLHTWSFYRLAQFIEYKANLVGIKVEYVNPAYTSQTCPKCSEKNKAPDRKYKCRCGFEKHRDIVGAMNIRYATVIDGNSQSALEHHHHHH	soluble
DYKDDDDKVKLYKTNKYGTLYKSESASFTANTDIITRLTGPFRSMPQSGVLRKGLTIKYDEVMKQDGHVWVGYNTNSGKRVYLPVRTWNESTGELGPLWGTIK	soluble
MGSDKIHHHHHHMVKCIEEYVQVDDFKMYSKVFQGKKLQPVIIMEAGYGDYSKTWDHIAEELTEFGTVLTYDRAGLGKSGNSSKRRISSEMIKDLRSCLEKLQLKPPYIFVGHSFGGINARLFATFYSEDMLGIVLVDSTPENYKKDFLLIMSPEFQEAYYKQFVHESSYKEFMFSLGEADKHCQSMRNIPLVVLAAGKKAYYSQEAQMKWLQLQEELLRLSNNHKFIIAEQSGHYIQKDEPHYIIDAVKWIIEVGEG	not soluble
MAPHPEAAALLARSHRLGADPRNTNYAGGNASAKGTATDPVTGGDVELMWVKGSGGDLGTLTEAGLAVLRLDRLHALKGVYPGVEREDEMVAAFDYCLHGKGGAAPSIDTAMHGLVDAAHVDHLHPDSGIALACAADGEKLTAECFGDSVAWVPWRRPGFQLGLDIAAVKEANPQTIGCVLGGHGITAWGATAEECERNSLHIIRTAEAFLAERGKAEPFGPVIEGYAALEHHHHHH	not soluble
MGSDKIHHHHHHMKHYRQVVSPQLRQQALDWILAAAQRPDPALEPEFDIADDERREAKKVRNLHRHDPLFWDDWFARSGLDALVRDHLRKPRLLRHAAFIKRHADESYIPLHQDIALWEKRYESAQTFWVALTPSRNDNGGMFYYPDDRTIFPHEFDLAYPMFKCIDLQANGISREQLVDAELDAGDVLVWPARTAHGSHNNRSGQLRIGMPIVFVEDDEFHQLNREDSMKTWIASNLKSVFPDEAITEDNLDHYLPQLCDYSLKMVTFLARFSRQFGHAPKIHDFIREPRLATLSASDAGARR	not soluble
MDTNSLLSAGSDMAKAANLSDADIIQLSDAACKQSDQESKIAPAGNKYSVRLTKLMRGFGNMTLNGQKVNYKVYMTEDVNAWAMGNGCVRVYTGLMDLMNDDELRGVIGHEMGHVALGHTKKAMQTAYAVSAARQAAGAAGNSVVASLSASQLGEMTEKFINAQFSQSQETAADDFSFDLLTEKKMNRKGLVTAFQKLAELDGGESSMFSSHPSSPDRAARMEKRLQAGKLEHHHHHH	soluble
MGSDKIHHHHHHMAAGHGVRPARVAISLYPGCAQLYLQAQRAGKAVEALETPEAHFSVLESISLEEQMLILRSVLKRSQEQREKDFELMIQAYLSGNLDKVGALDSALGVDGLPAGLWEKIRVKLLDERNMRMAERIAAAASLQPVFVAVGAAHLPGEGGLIDLLSRAGLPYLPSIASDARRRLTFMPHLPLTHARYNSSYFRRMDGLTMADRINLRPLERNDLHFVHKLNNNDTIMRYWFEEPYEAYDELVALYDRHIHDQNERRFIIELDNGELAGLVELVEINYIHRRAEFQIIIAPDYQGRGLAKSATRIAVGYAFRVLNLHKVYLVVDKENQAAIHVYEACGFEVEGRLKEEFFSNGSYRDVLRMRLLQDDYLRHVGPAPVDASVLREWQDQ	not soluble
MLSVGRGIADITGEAADCGMLGYGKSDQRTAGIHQRLRSRAFVFRDDSQDGDARLLLIVAELPLPMQNVNEEVLRRLADLYGDTYSEQNTLITATHTHAGPGGYCGYLLYNLTTSGFRPATFAAIVDGIVESVEHAHADVAPAEVSLSHGELYGASINRSPSAFDRNPPADKAFFPKRVDPHTTLVRIDRGEATVGVIHFFATHGTSMTNRNHLISGDNKGFAAYHWERTVGGADYLAGQPDFIAAFAQTNPGDMSPNVDGPLSPEAPPDREFDNTRRTGLCQFEDAFTQLSGATPIGAGIDARFTYVDLGSVLVRGEYTPDGEERRTGRPMFGAGAMAGTDEGPGFHGFRQGRNPFWDRLSRAMYRLARPTAAAQAPKGIVMPARLPNRIHPFVQEIVPVQLVRIGRLYLIGIPGEPTIVAGLRLRRMVASIVGADLADVLCVGYTNAYIHYVTTPEEYLEQRYEGGSTLFGRWELCALMQTVAELAEAMRDGRPVTLGRRPRPTRELSWVRGAPADAGSFGAVIAEPSATYRPGQAVEAVFVSALPNNDLRRGGTYLEVVRREGASWVRIADDGDWATSFRWQRQGRAGSHVSIRWDVPGDTTPGQYRIVHHGTARDRNGMLTAFSATTREFTVV	soluble
MGSDKIHHHHHHMATVLIVGRPNVGKSTLFNKLVKKKKAIVEDEEGVTRDPVQDTVEWYGKTFKLVDTCGVFDNPQDIISQKMKEVTLNMIREADLVLFVVDGKRGITKEDESLADFLRKSTVDTILVANKAENLREFEREVKPELYSLGFGEPIPVSAEHNINLDTLLETIIKKLEEKGLDLESKPEITDAIKVAIVGRPNVGKSTLFNAILNKERALVSPIPGTTRDPVDDEVFIDGRKYVFVDTAGLRRKSRVEPRTVEKYSNYRVVDSIEKADVVVIVLDATQGITRQDQRIAGLVERRGRASVVVFNKWDLVEHREKRYDEFTKLFREKLYFIDYSPLIFTSADKGWNIDRVIDAINLAYASYTTKVPSSAINSALQKVLAFTNLPRGLKIFFGLQVDIKPPTFLFFVNSIEKVKNPQKIFLRKLIRDYVFPFEGSPIFLKFKRSR	not soluble
MSLSRAFLVAAPSSGSGKTTITLGLLRLFARRGMAVQPFKCGPDYLDTMLHAMAASTGETARPGLNLDTFMASKEHVRSLFARNAASADISVIEGVMGLFDGAEKSDGSSAEIAALLGLPVIMVIDGSKIAYSAAPILYGFKHFDPSVKVAGVIFNRVGSASHYSHLEAAAKDVGVEPLGYLPRNSDITISERHLGLNTSAEYDREKLIDAMAEHIEKTVNIERLLDVARIELPEIEQAQPVTKKLDKVIAVARDEAFNFIYHDNLETLKRYGEVRFFSPLHDRELPKADLVYLAGGYPELHAEALAANKTMRKAIAEWCRNRGATWAECGGLMYLGKTLTLADGAAHPMCGVLDLDTTMQEARLTLGYRKVYPAGADGVELRGHEFHYSRIWRQGEIDTIAEIRNARGQQVGTKLFRVGNTIASYLHLYWGEHDYLANWFDVLREGHHHHHH	soluble
GPGSMRDLNKRQQKFVCGCLGITSWDGKDIPFYVETMPKINDVVWVKITQVNDTSAVVQLLEYGKREGIIPYTEVTRRRVRSMGKLIKVGRTEPAQVIRIDKDKGYIDLSKKLVTPNEAKACEAHFRQGNEVRSIVCHVAELCDIPAMDAMEMIAYPLYQREPGKHAWTWLYELNQTEDVERILGPLKLEKAISDCLMLTLKNAMRLKVLTLFAEVEITCFACDGVEAIRDVLILGRSYGEGSDPQIHLSVNIIGPPKYGIRARTDMKEEGIQRMKEAIEAMTAEIKKRGGQLKVVSPPQPHGDADEGKKGFDGEDDDDEDAD	soluble
MSLAEQATKSVLFVCLGNICRSPIAEAVFRKLVTDQNISENWVIDSGAVSDWNVGRSPDPRAVSCLRNHGIHTAHKARQITKEDFATFDYILCMDESNLRDLNRKSNQVKTCKAKIELLGSYDPQKQLIIEDPYYGNDSDFETVYQQCVRCCRAFLEKAHEGHHHHHH	soluble
MAHHHHHHMVLLWVDAEQYGVASSLGLSDDAKYPAFVIARGEDHFVHPSTEPVTAESIEKFIIEYSEKKLSPEIKSQPVPEIETVEGLTTVVGKTLDKYLSSGKDMLIEFFAPWCGHCKNLAPIYAKVAKEFESSDVIIAAMDATANQVDNSLFDVSGFPTIYFVPHGGKPIVYDGGRTFYEIYKFVHEHSSTLKDVPIPEEVKREEEKNGDYDDL	soluble
MGSDKIHHHHHHMIYNYGFLDENTKKEIRRKILKAISIPGYQVPFGSRELPIAKGWGTGGLQLTLSLIGKNDVVKVIDQGSDDSTNACNIRSFIASVSNVETTKDTLEATLIQTRHRIPEEKLKSNQILIFQVPIPETLRIVEPSEVETRRMHSEEDYSRMWVYLYEDIVRFNDISIAVEYPCKVNDRYLMNPSPIPRFDIKKLNMSDNLFLFGAGREKRIYAIPPYTKVEPLEFEDYKFEEEKFEGKYCSLCNSTNTFLDEVYDSDTNEKYYSCSDTSYCEKVRLKNNSIDVTIGGTWNE	not soluble
